From the supplement of paper PMC7125110
± gives the standard error. Fewer inactive variants are shown than the library holds.

B1: glmS ribozyme (parent)
chain: AUAAAAGCGCCAGAACUACAGAAAUGUAGUUGACGAGGAGGAGGUUUAUCGAAUUUUCGGCGGAUGCCUCCAAA

What was measured:
Conditions in all cases: with glucosamine-6-phosphate
glucosamine-6-phosphate [1] = variants of: B1; test: self-cleavage kobs at 40 uM GlcN6P; higher = faster cleavage; RNA array
Summary of the method: (§1)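 Glucosamine-6-phosphate, from 40 μM to 10 mM in HEPES/KCl/Mg(OAc)2 buffer, was flowed over sequenced MiSeq chips carrying barcoded ribozyme variants transcribed in situ by E. coli RNA polymerase. A hybridised Cy3 probe tracked the variants at 37 °C as tiles were imaged over ~14 h. kobs, kcat and KM were obtained by fitting normalised per-tile medians to exponential decays and then applying weighted Michaelis–Menten fits across concentrations.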

glucosamine-6-phosphate [2] = variants of: B1; test: self-cleavage kobs at 2500 uM GlcN6P; higher = faster cleavage; RNA array
Summary of the method: as §1

glucosamine-6-phosphate [3] = variants of: B1; test: self-cleavage kobs at 10000 uM GlcN6P; higher = faster cleavage; RNA array
Summary of the method: as §1

glucosamine-6-phosphate [4] = variants of: B1; test: self-cleavage kobs at 160 uM GlcN6P; higher = faster cleavage; RNA array
Summary of the method: as §1

glucosamine-6-phosphate [5] = variants of: B1; test: self-cleavage kobs at 640 uM GlcN6P; higher = faster cleavage; RNA array
Summary of the method: as §1

Variant	self-cleavage kobs at 40 uM GlcN6P (glucosamine-6-phosphate [1]) [s⁻¹]	self-cleavage kobs at 2500 uM GlcN6P (glucosamine-6-phosphate [2]) [s⁻¹]	self-cleavage kobs at 10000 uM GlcN6P (glucosamine-6-phosphate [3]) [s⁻¹]	self-cleavage kobs at 160 uM GlcN6P (glucosamine-6-phosphate [4]) [s⁻¹]	self-cleavage kobs at 640 uM GlcN6P (glucosamine-6-phosphate [5]) [s⁻¹]
C11G U31A A33U A36C	< 1e-05	< 1e-05	< 1e-05		
G41A U56A	4.59e-05 ± 9.3e-06	0.00173 ± 0.00036	0.00063 ± 8.8e-05	8.06e-05 ± 1.3e-05	0.000252 ± 2.8e-05
A12C U30A G38C C61U	< 1e-05	< 1e-05			
A53U U56A C70U	0.000179 ± 3.4e-05		0.00382 ± 0.0011		
C11G A39G U45C G60A G66U	< 1e-05				
A42U G62C	< 1e-05		< 1e-05		< 1e-05
C10A C34A G38U	< 1e-05				
G13U G62A	< 1e-05	< 1e-05	< 1e-05		
G7A G41U A42G A52G	< 1e-05		< 1e-05		
U31A U49C	< 1e-05	< 1e-05	< 1e-05	< 1e-05	< 1e-05
A6C A15U G40A	< 1e-05	< 1e-05	< 1e-05		
G59U G63U	< 1e-05	< 1e-05		< 1e-05	< 1e-05
G35A A36G A48G A53G	< 1e-05		< 1e-05		
A14U U31G G38C A52U A53U	< 1e-05				
C34G A36U U46A A52G C71A	< 1e-05		< 1e-05	< 1e-05	< 1e-05
G43C A64U	< 1e-05	< 1e-05	< 1e-05	< 1e-05	
G9C A39C G44C	< 1e-05				
G44C U55A	< 1e-05			< 1e-05	< 1e-05
G43A C58G	< 1e-05	< 1e-05	< 1e-05	< 1e-05	< 1e-05
C34G A42G U56G C67A	< 1e-05		< 1e-05		
G13C A33C G41U	< 1e-05	< 1e-05	< 1e-05	< 1e-05	< 1e-05
A53U G60C	< 1e-05	< 1e-05	< 1e-05		
A33G U54G U65G	< 1e-05		< 1e-05		
A36G G44U	< 1e-05		< 1e-05	< 1e-05	< 1e-05

Variant	self-cleavage kobs at 40 uM GlcN6P (glucosamine-6-phosphate [1]) [s⁻¹]	self-cleavage kobs at 2500 uM GlcN6P (glucosamine-6-phosphate [2]) [s⁻¹]	self-cleavage kobs at 10000 uM GlcN6P (glucosamine-6-phosphate [3]) [s⁻¹]	self-cleavage kobs at 160 uM GlcN6P (glucosamine-6-phosphate [4]) [s⁻¹]	self-cleavage kobs at 640 uM GlcN6P (glucosamine-6-phosphate [5]) [s⁻¹]
C10U U31C G32C U49A G51U G60C	< 1e-05				
G40C U54G U56G	4.04e-05 ± 1.9e-05	0.000625 ± 0.00018	0.000719 ± 0.00012		
C8U U45C	< 1e-05	< 1e-05		< 1e-05	< 1e-05
G43U A52U	< 1e-05			< 1e-05	
A39C A42U A48G C50A	< 1e-05				
A6U A12U G32C A33C C50A	< 1e-05		< 1e-05		
C61G A64U C68A	< 1e-05				
C61A G62C G63U C71A	< 1e-05		< 1e-05		
C16A U31A U47C G63A	< 1e-05				
G37C C50G C58G C67G	0.00014 ± 3.9e-05	6.52e-05 ± 2.2e-05	0.000593 ± 0.00017	0.00039 ± 0.00012	0.000349 ± 8.1e-05
A64G C68U	< 1e-05	2.62e-05 ± 9e-06	3.13e-05 ± 9.2e-06	< 1e-05	
A12C U30G U54G	3.64e-05 ± 1.3e-05	0.000897 ± 0.00025	0.00183 ± 0.00039		
G40C C67G C71U	< 1e-05				
C34U A42G	< 1e-05		< 1e-05	< 1e-05	
U30A A39U C67G C68G	0.000113 ± 2.1e-05		8.62e-05 ± 1.7e-05		
U47A C68A	< 1e-05				
G60U C71U	< 1e-05		< 1e-05	< 1e-05	< 1e-05
C16U U45C A48U C68U	< 1e-05				
G29U A39U	0.000106 ± 1e-05	0.00196 ± 0.00026	0.0042 ± 0.00041	0.000145 ± 2.1e-05	0.000784 ± 0.00013
G37U G40U	< 1e-05	< 1e-05	< 1e-05	< 1e-05	< 1e-05
G9A C10G G32U A48G	< 1e-05				
G44A A52C	< 1e-05	< 1e-05	< 1e-05	< 1e-05	< 1e-05
G9U G40U G44C G60U	< 1e-05		< 1e-05		
C34U U45C	< 1e-05	< 1e-05	< 1e-05	< 1e-05	

Variant	self-cleavage kobs at 40 uM GlcN6P (glucosamine-6-phosphate [1]) [s⁻¹]	self-cleavage kobs at 2500 uM GlcN6P (glucosamine-6-phosphate [2]) [s⁻¹]	self-cleavage kobs at 10000 uM GlcN6P (glucosamine-6-phosphate [3]) [s⁻¹]	self-cleavage kobs at 160 uM GlcN6P (glucosamine-6-phosphate [4]) [s⁻¹]	self-cleavage kobs at 640 uM GlcN6P (glucosamine-6-phosphate [5]) [s⁻¹]
G43C C50A U65C C68U	< 1e-05		< 1e-05		
A12G A42C U46C C61G	< 1e-05		< 1e-05		
G41C U45A U57A C61G	< 1e-05		< 1e-05		
U46A G51U	< 1e-05	< 1e-05	< 1e-05	< 1e-05	< 1e-05
A14C G41A C50G G59U	< 1e-05				
A12C G38A G60A	< 1e-05		< 1e-05	< 1e-05	
G35U U47A U57C	< 1e-05				
G9C A36U	< 1e-05	< 1e-05			< 1e-05
C10A G13A U30C G40A	< 1e-05				
G41C C70G	0.0028 ± 0.00025	0.0672 ± 0.025		0.00588 ± 0.00089	0.023 ± 0.0035
A15U G40U G44A	< 1e-05		< 1e-05		
A14C C50G A64G	4.29e-05 ± 2.1e-05				
A42U U56C G60U	< 1e-05				
U30G G44C	< 1e-05		3.93e-05 ± 1.1e-05	< 1e-05	
C11G A36G U49A U65C C70U	< 1e-05		< 1e-05		
U47A C50U	< 1e-05		5.52e-05 ± 1.2e-05		
A33G C68U	< 1e-05		< 1e-05		
G9U G43U C70G	< 1e-05		< 1e-05		
C10U G32A A39C U57C C61G C68G	< 1e-05		< 1e-05		< 1e-05
G9C G44A A52U	< 1e-05				
G13A G51A	< 1e-05		< 1e-05		< 1e-05
C8G U45A	< 1e-05		< 1e-05	< 1e-05	< 1e-05
C50G C58G	8.56e-05 ± 1.3e-05	6.82e-05 ± 1.8e-05		0.000155 ± 2.6e-05	0.000235 ± 5.2e-05
C50G C58U	0.000198 ± 9.7e-05	0.000443 ± 0.00019		9.14e-05 ± 2.2e-05	

Variant	self-cleavage kobs at 40 uM GlcN6P (glucosamine-6-phosphate [1]) [s⁻¹]	self-cleavage kobs at 2500 uM GlcN6P (glucosamine-6-phosphate [2]) [s⁻¹]	self-cleavage kobs at 10000 uM GlcN6P (glucosamine-6-phosphate [3]) [s⁻¹]	self-cleavage kobs at 160 uM GlcN6P (glucosamine-6-phosphate [4]) [s⁻¹]	self-cleavage kobs at 640 uM GlcN6P (glucosamine-6-phosphate [5]) [s⁻¹]
A14G C16A U54G	0.000211 ± 4.8e-05		0.00361 ± 0.00067		
A15C G41U C70A	0.000696 ± 0.00013				
U45C G59U	< 1e-05		< 1e-05	< 1e-05	< 1e-05
A53U U65A	4.97e-05 ± 1.8e-05	0.00238 ± 0.00058	0.00253 ± 0.00061	7.52e-05 ± 2.1e-05	
G21U A39G	0.00105 ± 0.00032				
C34G A52U U55A	< 1e-05	< 1e-05	< 1e-05		
G13A G41C C61A	< 1e-05			< 1e-05	< 1e-05
G43A A64U	< 1e-05	< 1e-05	< 1e-05	< 1e-05	< 1e-05
A36G U56C	< 1e-05	< 1e-05		< 1e-05	< 1e-05
A36G C50G C68U	0.000269 ± 0.0001	9.73e-05 ± 3.6e-05	0.000205 ± 5.4e-05	0.000434 ± 0.00013	0.000436 ± 0.00017
A6G G60U	< 1e-05			< 1e-05	< 1e-05
A6C A14C A36C G37C G40U G66C C67G	< 1e-05				< 1e-05
C34A U57G G63C C71U	< 1e-05	< 1e-05			< 1e-05
C10G U57G	< 1e-05	< 1e-05	< 1e-05		< 1e-05
C10G G13A U47G	< 1e-05				
A14C A15U U56G	0.000225 ± 6.3e-05	0.00238 ± 0.00057	0.00809 ± 0.0027		0.00145 ± 0.00027
A15C C16A U31G A36G A39G A42C	< 1e-05	< 1e-05			
A33U G41A	< 1e-05		4.33e-05 ± 9.1e-06		< 1e-05
A12G G60C	< 1e-05	< 1e-05	< 1e-05	< 1e-05	< 1e-05
G41U G62C C70U	< 1e-05		< 1e-05		< 1e-05
A15U G32A A42C U54C U56G G63A	< 1e-05				
